For eight sequences, Kd results are on record in the Immune Epitope Database (IEDB).

Experiment [1] deals with HLA-A*02:19. The experiment is described as follows: IEDB peptide-MHC binding, purified MHC/direct/fluorescence; filed as Kd, often an IC50 or EC50 that approximates it; ≥ and ≤ were set here for values at or beyond the usual limits of such assays.
The target in experiment [2] is HLA-A*02:01. The description is as above.
The next experiment concerns the target HLA-A*68:02. The experiment is described as above.
The target of experiment [3] is HLA-B*18:01. The experiment is described as above.
In experiment [4] the target is HLA-A*03:01. Described as above.
The next experiment deals with HLA-B*51:01. The description is as above.
Experiment [5] concerns the target HLA-A*02:16. The experiment is described as above.
Experiment [6] concerns the target HLA-A*02:12. Described as above.
Another experiment concerns the target HLA-B*57:01. The description is as above.
For experiment [7], the target named is HLA-B*27:03. Described as above.
For experiment [8], the target named is HLA-B*46:01. Described as above.
Another experiment deals with HLA-A*26:01. The description is as above.
A further experiment addresses HLA-B*15:01. Described as above.
For experiment [9], the target named is HLA-A*02:03. The experiment is described as above.
The target of experiment [10] is HLA-A*69:01. The description is as above.
Experiment [11] has as its target HLA-A*24:03. The description is as above.
The next experiment has as its target HLA-B*15:17. The experiment is described as above.
Experiment [12] deals with HLA-A*29:02. The description is as above. To be noted: source organism: Brucella suis 1330.
Experiment [13] concerns the target HLA-A*23:01. The description is as above. The conditions noted are these: source organism: Brucella suis 1330.
Experiment [14] deals with HLA-A*02:19. The experiment is described as follows: IEDB peptide-MHC binding, purified MHC/competitive/fluorescence; filed as Kd, often an IC50 or EC50 that approximates it; ≥ and ≤ were set here for values at or beyond the usual limits of such assays. To be noted: source organism: Vibrio vulnificus YJ016.
The target in experiment [15] is HLA-A*69:01. The description is as above. To be noted: source organism: Vibrio vulnificus YJ016.
The target of experiment [16] is HLA-A*02:01. The description is as above. The conditions noted are these: source organism: Vibrio vulnificus YJ016.
The target of experiment [17] is HLA-A*24:03. The description is as above. The conditions noted are these: source organism: Vibrio vulnificus YJ016.
Experiment [18] has as its target HLA-A*29:02. The description is as above. To be noted: source organism: Vibrio vulnificus YJ016.
A further experiment deals with HLA-A*02:11. Described as above. To be noted: source organism: Vibrio vulnificus YJ016.
Experiment [19] has as its target HLA-B*39:01. Described as above. To be noted: source organism: Vibrio vulnificus YJ016.
Experiment [20] has as its target HLA-B*18:01. The experiment is described as above. To be noted: source organism: Vibrio vulnificus YJ016.
Experiment [21] deals with HLA-A*03:01. The description is as above. To be noted: source organism: Vibrio vulnificus YJ016.
Experiment [22] deals with HLA-A*02:16. The experiment is described as above. To be noted: source organism: Vibrio vulnificus YJ016.
Experiment [23] deals with HLA-A*02:12. Described as above. The conditions noted are these: source organism: Vibrio vulnificus YJ016.
Experiment [24] concerns the target HLA-A*23:01. The description is as above. To be noted: source organism: Vibrio vulnificus YJ016.
In experiment [25] the target is HLA-B*27:03. The description is as above. To be noted: source organism: Vibrio vulnificus YJ016.
Experiment [26] addresses HLA-B*46:01. The experiment is described as above. To be noted: source organism: Vibrio vulnificus YJ016.
For experiment [27], the target named is HLA-A*02:03. Described as above. To be noted: source organism: Vibrio vulnificus YJ016.
For another experiment, the target named is HLA-C*04:01. The experiment is described as follows: IEDB peptide-MHC binding, purified MHC/direct/fluorescence; filed as Kd, often an IC50 or EC50 that approximates it; ≥ and ≤ were set here for values at or beyond the usual limits of such assays.
A further experiment deals with HLA-B*48:01. The experiment is described as follows: IEDB peptide-MHC binding, purified MHC/competitive/fluorescence; filed as Kd, often an IC50 or EC50 that approximates it; ≥ and ≤ were set here for values at or beyond the usual limits of such assays.
The target in a further experiment is HLA-B*07:02. Kind of experiment: IEDB peptide-MHC binding, purified MHC/direct/fluorescence; filed as Kd, often an IC50 or EC50 that approximates it; ≥ and ≤ were set here for values at or beyond the usual limits of such assays. To be noted: source organism: Camelpox virus M-96.
In another experiment the target is HLA-A*01:01. Described as above. The conditions noted are these: source organism: Camelpox virus M-96.
The target in experiment [28] is HLA-B*39:01. The experiment is described as above. To be noted: source organism: Camelpox virus M-96.
The target in the next experiment is HLA-B*27:05. The description is as above. The conditions noted are these: source organism: Camelpox virus M-96.
A further experiment addresses HLA-B*58:01. The experiment is described as above. To be noted: source organism: Camelpox virus M-96.
Another experiment concerns the target HLA-B*35:01. Kind of experiment: IEDB peptide-MHC binding, purified MHC/competitive/fluorescence; filed as Kd, often an IC50 or EC50 that approximates it; ≥ and ≤ were set here for values at or beyond the usual limits of such assays. The conditions noted are these: source organism: Vaccinia virus L-IPV.
A further experiment addresses HLA-B*40:01. The description is as above. The conditions noted are these: source organism: Vaccinia virus L-IPV.
The mark [29] stands for this setting: source organism: Vibrio cholerae V52.
Where [30] appears, read: source organism: Brucella suis 1330.
[31] abbreviates: source organism: Camelpox virus M-96.

In the case of LPYPVLLKI, the dissociation constant (Kd) is at least 20 µM with HLA-A*02:19 [1] (setting [29]); at least 20 µM in the experiment with HLA-A*02:01 [2] (setting [29]); at least 20 µM with HLA-A*68:02 (setting [29]); at least 20 µM with HLA-B*18:01 [3] (setting [29]); at least 20 µM with HLA-A*03:01 [4] (setting [29]); 0.054 µM with HLA-B*51:01 (setting [29]). The equilibrium dissociation constant (Kd) in the experiment with HLA-A*02:16 [5] (setting [29]), with HLA-A*02:12 [6] (setting [29]), with HLA-B*57:01 (setting [29]), in the experiment with HLA-B*27:03 [7] (setting [29]), in the experiment with HLA-B*46:01 [8] (setting [29]) and with HLA-A*26:01 (setting [29]) was at least 20 µM in each case. The Kd with HLA-B*15:01 (setting [29]) and in the experiment with HLA-A*02:03 [9] (setting [29]) was at least 20 µM throughout.
Regarding MHCDFAFWV, the dissociation constant Kd with HLA-A*02:19 [1] (setting [30]), with HLA-A*69:01 [10] (setting [30]), with HLA-A*02:01 [2] (setting [30]), in the experiment with HLA-A*24:03 [11] (setting [30]), with HLA-B*15:17 (setting [30]) and with HLA-A*29:02 [12] was at least 20 µM each time. The Kd with HLA-A*68:02 (setting [30]), with HLA-B*18:01 [3] (setting [30]), with HLA-A*03:01 [4] (setting [30]), with HLA-B*51:01 (setting [30]), with HLA-A*02:16 [5] (setting [30]) and in the experiment with HLA-A*02:12 [6] (setting [30]) was at least 20 µM each time. The Kd with HLA-A*23:01 [13], with HLA-B*57:01 (setting [30]), in the experiment with HLA-B*27:03 [7] (setting [30]), with HLA-B*46:01 [8] (setting [30]), in the experiment with HLA-A*26:01 (setting [30]) and with HLA-B*15:01 (setting [30]) was at least 20 µM throughout. This sequence also registered a dissociation constant (Kd) with HLA-A*02:03 [9] (setting [30]) of at least 20 µM.
For the sequence HTSALSLGY, the Kd in the experiment with HLA-A*02:19 [14] was at least 20 µM; with HLA-A*69:01 [15] it was at least 20 µM; in the experiment with HLA-A*02:01 [16], at least 20 µM; with HLA-A*24:03 [17] it was at least 20 µM; with HLA-A*29:02 [18], at most 0.0001 µM; with HLA-A*02:11, at least 20 µM. For the same sequence, the Kd in the experiment with HLA-B*39:01 [19] was at least 20 µM; with HLA-B*18:01 [20] it was at least 20 µM; with HLA-A*03:01 [21], 0.0179 µM; in the experiment with HLA-A*02:16 [22] it was at least 20 µM; with HLA-A*02:12 [23] it was at least 20 µM; with HLA-A*23:01 [24], at least 20 µM. For the same sequence, the Kd with HLA-B*27:03 [25], with HLA-B*46:01 [26] and with HLA-A*02:03 [27] was at least 20 µM in each case.
Take LFPELDCFF: the Kd is 0.011 µM with HLA-A*24:03 [11] (source organism: Orthohantavirus dobravaense) and at least 20 µM with HLA-C*04:01 (source organism: Kurkino virus).
In the experiment with HLA-B*48:01 (source organism: Tick-borne encephalitis virus), RRLRTLVLA displayed a Kd of at least 20 µM.
KRAAAGIMK registered an equilibrium dissociation constant (Kd) with HLA-B*48:01 (source organism: Dengue virus 2 Thailand/NGS-C/1944) of at least 20 µM.
As to SHEQGDIAL, the Kd with HLA-A*69:01 [10] (setting [31]), with HLA-A*02:01 [2] (setting [31]), in the experiment with HLA-B*15:17 (setting [31]), in the experiment with HLA-B*07:02, with HLA-A*01:01 and with HLA-A*68:02 (setting [31]) was at least 20 µM each time. Further, the dissociation constant (Kd) with HLA-B*39:01 [28] is 0.0925 µM; with HLA-B*27:05 it was at least 20 µM; with HLA-B*18:01 [3] (setting [31]) it was at least 20 µM; with HLA-B*57:01 (setting [31]), at least 20 µM; with HLA-B*15:01 (setting [31]) it was at least 20 µM; with HLA-B*58:01 it was at least 20 µM. Further, the values for the Kd in the experiment with HLA-B*35:01, in the experiment with HLA-B*40:01 and with HLA-B*48:01 (source organism: Vaccinia virus L-IPV) were 2.3 µM, at least 20 µM and at least 20 µM, respectively.
In turn, MYMALIAAF had an equilibrium dissociation constant (Kd) in the experiment with HLA-C*04:01 (source organism: Yellow fever virus) of at least 20 µM.

In general, Kd refers to the free concentration of one partner at which half of the binding sites on the other are occupied at equilibrium, for simple one-to-one binding. Lower therefore signals tighter binding.
